Experimental data published in patent US20220298260A1 (MYTHIC THERAPEUTICS, published 2022).

Molecular target: T1, FOLR1 (R&D Systems, Cat #5646-FR) (human, UniProt P15328 25-233)
T1 construct: Bought soluble protein; also called Folate Receptor 1
Assay: BLI, IgG on anti-human Fc sensor, 50 nM FOLR1

T1 sequence (P15328 25-233 limits assumed): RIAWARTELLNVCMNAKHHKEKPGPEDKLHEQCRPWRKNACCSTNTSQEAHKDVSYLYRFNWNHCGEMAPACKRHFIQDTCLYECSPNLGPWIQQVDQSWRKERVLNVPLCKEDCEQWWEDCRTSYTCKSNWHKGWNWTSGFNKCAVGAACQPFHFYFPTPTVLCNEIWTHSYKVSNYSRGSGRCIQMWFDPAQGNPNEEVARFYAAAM

binding result	Binder
binds	MYT2190 (antibody, V domains shown, IgG) VH: EVQLVESGGGVVQPGRSLRLSCSASGFTFSHYGLSWVRQAPGKGLEWVAMISSGGSYTYYADSVKGRFAISRDNAKNTLFLQMDSLRPEDTGVYFCARHGDDPAWFAYWGQGTPVTVSS VL: DIQLTQSPSSLSASVGDRVTITCSVSSSISSNNLHWYQQKPGKAPKPWIYGTSNLASGVPSRFSGSGSGTDYTFTISSLQPEDIATYYCQQWSSYPYMYTFGQGTKVEIK
binds	MYT2207 (antibody, V domains shown, IgG) VH: EVQLVESGGGVVQPGRSLRLSCSASGFTFSGYGLSWVRQAPGKGLEWVAMISSGGSYTYYAHSVKGRFAISRDNAKNTLFLQMDSLRPEDTGVYFCARHGDDPAWFAYWGQGTPVTVSS VL: DIQLTQSPSSLSASVGDRVTITCSVSSSISSNNLHWYQQKPGKAPKPWIYGTSNLASGVPSRFSGSGSGTDYTFTISSLQPEDIATYYCQQWSSYPYMYTFGQGTKVEIK
binds	MYT2191 (antibody, V domains shown, IgG) VH: EVQLVESGGGVVQPGRSLRLSCSASGFTFSGHGLSWVRQAPGKGLEWVAMISSGGSYTYYADSVKGRFAISRDNAKNTLFLQMDSLRPEDTGVYFCARHGDDPAWFAYWGQGTPVTVSS VL: DIQLTQSPSSLSASVGDRVTITCSVSSSISSNNLHWYQQKPGKAPKPWIYGTSNLASGVPSRFSGSGSGTDYTFTISSLQPEDIATYYCQQWSSYPYMYTFGQGTKVEIK
binds	MYT2208 (antibody, V domains shown, IgG) VH: EVQLVESGGGVVQPGRSLRLSCSASGFTFSGYGLSWVRQAPGKGLEWVAMISSGGSYTYYADHVKGRFAISRDNAKNTLFLQMDSLRPEDTGVYFCARHGDDPAWFAYWGQGTPVTVSS VL: DIQLTQSPSSLSASVGDRVTITCSVSSSISSNNLHWYQQKPGKAPKPWIYGTSNLASGVPSRFSGSGSGTDYTFTISSLQPEDIATYYCQQWSSYPYMYTFGQGTKVEIK
binds	MYT2206 (antibody, V domains shown, IgG) VH: EVQLVESGGGVVQPGRSLRLSCSASGFTFSGYGLSWVRQAPGKGLEWVAMISSGGSYTYYHDSVKGRFAISRDNAKNTLFLQMDSLRPEDTGVYFCARHGDDPAWFAYWGQGTPVTVSS VL: DIQLTQSPSSLSASVGDRVTITCSVSSSISSNNLHWYQQKPGKAPKPWIYGTSNLASGVPSRFSGSGSGTDYTFTISSLQPEDIATYYCQQWSSYPYMYTFGQGTKVEIK
binds	MYT2202 (antibody, V domains shown, IgG) VH: EVQLVESGGGVVQPGRSLRLSCSASGFTFSGYGLSWVRQAPGKGLEWVAMISSGGSHTYYADSVKGRFAISRDNAKNTLFLQMDSLRPEDTGVYFCARHGDDPAWFAYWGQGTPVTVSS VL: DIQLTQSPSSLSASVGDRVTITCSVSSSISSNNLHWYQQKPGKAPKPWIYGTSNLASGVPSRFSGSGSGTDYTFTISSLQPEDIATYYCQQWSSYPYMYTFGQGTKVEIK
binds	MYT2204 (antibody, V domains shown, IgG) VH: EVQLVESGGGVVQPGRSLRLSCSASGFTFSGYGLSWVRQAPGKGLEWVAMISSGGSYTHYADSVKGRFAISRDNAKNTLFLQMDSLRPEDTGVYFCARHGDDPAWFAYWGQGTPVTVSS VL: DIQLTQSPSSLSASVGDRVTITCSVSSSISSNNLHWYQQKPGKAPKPWIYGTSNLASGVPSRFSGSGSGTDYTFTISSLQPEDIATYYCQQWSSYPYMYTFGQGTKVEIK
binds	MYT2203 (antibody, V domains shown, IgG) VH: EVQLVESGGGVVQPGRSLRLSCSASGFTFSGYGLSWVRQAPGKGLEWVAMISSGGSYHYYADSVKGRFAISRDNAKNTLFLQMDSLRPEDTGVYFCARHGDDPAWFAYWGQGTPVTVSS VL: DIQLTQSPSSLSASVGDRVTITCSVSSSISSNNLHWYQQKPGKAPKPWIYGTSNLASGVPSRFSGSGSGTDYTFTISSLQPEDIATYYCQQWSSYPYMYTFGQGTKVEIK
binds	MYT2205 (antibody, V domains shown, IgG) VH: EVQLVESGGGVVQPGRSLRLSCSASGFTFSGYGLSWVRQAPGKGLEWVAMISSGGSYTYHADSVKGRFAISRDNAKNTLFLQMDSLRPEDTGVYFCARHGDDPAWFAYWGQGTPVTVSS VL: DIQLTQSPSSLSASVGDRVTITCSVSSSISSNNLHWYQQKPGKAPKPWIYGTSNLASGVPSRFSGSGSGTDYTFTISSLQPEDIATYYCQQWSSYPYMYTFGQGTKVEIK
binds	MYT2192 (antibody, V domains shown, IgG) VH: EVQLVESGGGVVQPGRSLRLSCSASGFTFSGYHLSWVRQAPGKGLEWVAMISSGGSYTYYADSVKGRFAISRDNAKNTLFLQMDSLRPEDTGVYFCARHGDDPAWFAYWGQGTPVTVSS VL: DIQLTQSPSSLSASVGDRVTITCSVSSSISSNNLHWYQQKPGKAPKPWIYGTSNLASGVPSRFSGSGSGTDYTFTISSLQPEDIATYYCQQWSSYPYMYTFGQGTKVEIK
binds	MYT2199 (antibody, V domains shown, IgG) VH: EVQLVESGGGVVQPGRSLRLSCSASGFTFSGYGLSWVRQAPGKGLEWVAMISSHGSYTYYADSVKGRFAISRDNAKNTLFLQMDSLRPEDTGVYFCARHGDDPAWFAYWGQGTPVTVSS VL: DIQLTQSPSSLSASVGDRVTITCSVSSSISSNNLHWYQQKPGKAPKPWIYGTSNLASGVPSRFSGSGSGTDYTFTISSLQPEDIATYYCQQWSSYPYMYTFGQGTKVEIK
binds	MYT2201 (antibody, V domains shown, IgG) VH: EVQLVESGGGVVQPGRSLRLSCSASGFTFSGYGLSWVRQAPGKGLEWVAMISSGGHYTYYADSVKGRFAISRDNAKNTLFLQMDSLRPEDTGVYFCARHGDDPAWFAYWGQGTPVTVSS VL: DIQLTQSPSSLSASVGDRVTITCSVSSSISSNNLHWYQQKPGKAPKPWIYGTSNLASGVPSRFSGSGSGTDYTFTISSLQPEDIATYYCQQWSSYPYMYTFGQGTKVEIK

Continued, binder first:

Binder	binding result
MYT2193 (antibody, V domains shown, IgG) VH: EVQLVESGGGVVQPGRSLRLSCSASGFTFSGYGHSWVRQAPGKGLEWVAMISSGGSYTYYADSVKGRFAISRDNAKNTLFLQMDSLRPEDTGVYFCARHGDDPAWFAYWGQGTPVTVSS VL: DIQLTQSPSSLSASVGDRVTITCSVSSSISSNNLHWYQQKPGKAPKPWIYGTSNLASGVPSRFSGSGSGTDYTFTISSLQPEDIATYYCQQWSSYPYMYTFGQGTKVEIK	binds
MYT2218 (antibody, V domains shown, IgG) VH: EVQLVESGGGVVQPGRSLRLSCSASGFTFSGYGLSWVRQAPGKGLEWVAMISSGGSYTYYADSVKGRFAISRDNAKNTLFLQMDSLRPEDTGVYFCARHGDDHAWFAYWGQGTPVTVSS VL: DIQLTQSPSSLSASVGDRVTITCSVSSSISSNNLHWYQQKPGKAPKPWIYGTSNLASGVPSRFSGSGSGTDYTFTISSLQPEDIATYYCQQWSSYPYMYTFGQGTKVEIK	binds
MYT2210 (antibody, V domains shown, IgG) VH: EVQLVESGGGVVQPGRSLRLSCSASGFTFSGYGLSWVRQAPGKGLEWVAMISSGGSYTYYADSVHGRFAISRDNAKNTLFLQMDSLRPEDTGVYFCARHGDDPAWFAYWGQGTPVTVSS VL: DIQLTQSPSSLSASVGDRVTITCSVSSSISSNNLHWYQQKPGKAPKPWIYGTSNLASGVPSRFSGSGSGTDYTFTISSLQPEDIATYYCQQWSSYPYMYTFGQGTKVEIK	binds
MYT2214 (antibody, V domains shown, IgG) VH: EVQLVESGGGVVQPGRSLRLSCSASGFTFSGYGLSWVRQAPGKGLEWVAMISSGGSYTYYADSVKGRFAISRDNAKNTLFLQMDSLRPEDTGVYFCARAGDDPAWFAYWGQGTPVTVSS VL: DIQLTQSPSSLSASVGDRVTITCSVSSSISSNNLHWYQQKPGKAPKPWIYGTSNLASGVPSRFSGSGSGTDYTFTISSLQPEDIATYYCQQWSSYPYMYTFGQGTKVEIK	binds
MYT2209 (antibody, V domains shown, IgG) VH: EVQLVESGGGVVQPGRSLRLSCSASGFTFSGYGLSWVRQAPGKGLEWVAMISSGGSYTYYADSHKGRFAISRDNAKNTLFLQMDSLRPEDTGVYFCARHGDDPAWFAYWGQGTPVTVSS VL: DIQLTQSPSSLSASVGDRVTITCSVSSSISSNNLHWYQQKPGKAPKPWIYGTSNLASGVPSRFSGSGSGTDYTFTISSLQPEDIATYYCQQWSSYPYMYTFGQGTKVEIK	binds
MYT2220 (antibody, V domains shown, IgG) VH: EVQLVESGGGVVQPGRSLRLSCSASGFTFSGYGLSWVRQAPGKGLEWVAMISSGGSYTYYADSVKGRFAISRDNAKNTLFLQMDSLRPEDTGVYFCARHGDDPAHFAYWGQGTPVTVSS VL: DIQLTQSPSSLSASVGDRVTITCSVSSSISSNNLHWYQQKPGKAPKPWIYGTSNLASGVPSRFSGSGSGTDYTFTISSLQPEDIATYYCQQWSSYPYMYTFGQGTKVEIK	binds
MYT2216 (antibody, V domains shown, IgG) VH: EVQLVESGGGVVQPGRSLRLSCSASGFTFSGYGLSWVRQAPGKGLEWVAMISSGGSYTYYADSVKGRFAISRDNAKNTLFLQMDSLRPEDTGVYFCARHGHDPAWFAYWGQGTPVTVSS VL: DIQLTQSPSSLSASVGDRVTITCSVSSSISSNNLHWYQQKPGKAPKPWIYGTSNLASGVPSRFSGSGSGTDYTFTISSLQPEDIATYYCQQWSSYPYMYTFGQGTKVEIK	binds
MYT2211 (antibody, V domains shown, IgG) VH: EVQLVESGGGVVQPGRSLRLSCSASGFTFSGYGLSWVRQAPGKGLEWVAMISSGGSYTYYADSVKHRFAISRDNAKNTLFLQMDSLRPEDTGVYFCARHGDDPAWFAYWGQGTPVTVSS VL: DIQLTQSPSSLSASVGDRVTITCSVSSSISSNNLHWYQQKPGKAPKPWIYGTSNLASGVPSRFSGSGSGTDYTFTISSLQPEDIATYYCQQWSSYPYMYTFGQGTKVEIK	binds
MYT2198 (antibody, V domains shown, IgG) VH: EVQLVESGGGVVQPGRSLRLSCSASGFTFSGYGLSWVRQAPGKGLEWVAMISHGGSYTYYADSVKGRFAISRDNAKNTLFLQMDSLRPEDTGVYFCARHGDDPAWFAYWGQGTPVTVSS VL: DIQLTQSPSSLSASVGDRVTITCSVSSSISSNNLHWYQQKPGKAPKPWIYGTSNLASGVPSRFSGSGSGTDYTFTISSLQPEDIATYYCQQWSSYPYMYTFGQGTKVEIK	binds
